Test results reported in patent publication US6858428B2, “Human and animal cell culture medium containing antithrombin III for suppressing cell death” (Agency of Industrial Science and Technology, priority 1999, dated 2005).
Entries after “also recorded” stand apart in the source; their conditions may differ.

B1: EGF: growth factor reported as survival factor (protein, UniProt P01133 23-1207, looked up)
Pro-epidermal growth factor: PQHWSCPEGTLAGNGNSTCVGPAPFLIFSHGNSIFRIDTEGTNYEQLVVDAGVSVIMDFHYNEKRIYWVDLERQLLQRVFLNGSRQERVCNIEKNVSGMAINWINEEVIWSNQQEGIITVTDMKGNNSHILLSALKYPANVAVDPVERFIFWSSEVAGSLYRADLDGVGVKALLETSEKITAVSLDVLDKRLFWIQYNREGSNSLICSCDYDGGSVHISKHPTQHNLFAMSLFGDRIFYSTWKMKTIWIANKHTGKDMVRINLHSSFVPLGELKVVHPLAQPKAEDDTWEPEQKLCKLRKGNCSSTVCGQDLQSHLCMCAEGYALSRDRKYCEDVNECAFWNHGCTLGCKNTPGSYYCTCPVGFVLLPDGKRCHQLVSCPRNVSECSHDCVLTSEGPLCFCPEGSVLERDGKTCSGCSSPDNGGCSQLCVPLSPVSWECDCFPGYDLQLDEKSCAASGPQPFLLFANSQDIRHMHFDGTDYGTLLSQQMGMVYALDHDPVENKIYFAHTALKWIERANMDGSQRERLIEEGVDVPEGLAVDWIGRRFYWTDRGKSLIGRSDLNGKRSKIITKENISQPRGIAVHPMAKRLFWTDTGINPRIESSSLQGLGRLVIASSDLIWPSGITIDFLTDKLYWCDAKQSVIEMANLDGSKRRRLTQNDVGHPFAVAVFEDYVWFSDWAMPSVMRVNKRTGKDRVRLQGSMLKPSSLVVVHPLAKPGADPCLYQNGGCEHICKKRLGTAWCSCREGFMKASDGKTCLALDGHQLLAGGEVDLKNQVTPLDILSKTRVSEDNITESQHMLVAEIMVSDQDDCAPVGCSMYARCISEGEDATCQCLKGFAGDGKLCSDIDECEMGVPVCPPASSKCINTEGGYVCRCSEGYQGDGIHCLDIDECQLGEHSCGENASCTNTEGGYTCMCAGRLSEPGLICPDSTPPPHLREDDHHYSVRNSDSECPLSHDGYCLHDGVCMYIEALDKYACNCVVGYIGERCQYRDLKWWELRHAGHGQQQKVIVVAVCVVVLVMLLLLSLWGAHYYRTQKLLSKNPKNPYEESSRDVRSRRPADTEDGMSSCPQPWFVVIKEHQDLKNGGQPVAGEDGQAADGSMQPTSWRQEPQLCGMGTEQGCWIPVSSDKGSCPQVMERSFHMPSYGTQTLEGGVEKPHSLLSANPLWQQRALDPPHQMELTQ
modifications: Pro-epidermal growth factor
B2: Antithrombin III: Lyophilized antithrombin III purified from bovine serum (protein, UniProt P41361 33-465, looked up)
Antithrombin-III: HRSPVEDVCTAKPRDIPVNPMCIYRSSEKKATEGQGSEQKIPGATNRRVWELSKANSHFATAFYQHLADSKNNNDNIFLSPLSISTAFAMTKLGACNNTLKQLMEVFKFDTISEKTSDQIHFFFAKLNCRLYRKANKSSELVSANRLFGGKSITFNETYQDISEVVYGAKLQPLDFKGNAEQSRLTINQWISNKTEGRITDVIPPQAINEFTVLVLVNTIYFKGLWKSKFSPENTRKELFYKADGESCSVLMMYQESKFRYRRVAESTQVLELPFKGDDITMVLILPKLEKTLAKVEQELTPDMLQEWLDELTETLLVVHMPRFRIEDSFSVKEQLQDMGLEDLFSPEKSRLPGIVAEGRSDLYVSDAFHKAFLEVNEEGSEAAASTVISIAGRSLNSDRVTFKANRPILVLIREVALNTIIFMGRVANPCVD

Key:
[1] = tested on: hepatoma cell line HepG2; experiment: Survival of hepatoma cell line HepG2 in serum-free culture (viable cell count after 3 days); type: cell-based; conditions: for Survival rate: HepG2, DMEM without fetal bovine serum; for Effect in controlling cell death (in words): HepG2, serum-free medium
Procedure: Two mL cell suspension of hepatoma cell line HepG2 dispersed in trypsin (5×10^5 cells) were inoculated on six multi-well plates and pre-culture by using Dulbecco's modified Eagle medium (DMEM) containing 5% fetal bovine serum, 1.6 g/L sodium hydrogencarbonate, 0.584 g/L L-glutamine, and 0.08 g/L kanamycin sulfate at 37° C. in a 5% CO2 gas phase. […] The viable cell count was assayed after 3 days of culture.
(§1) The hepatoma cell line HepG2 was pre-cultured in the same manner as in Example 1. After 1 day, the broth was recovered, the cell surfaces were washed with serum-free medium, and the culture was continued for another 3 days with the addition of medium containing 5%, 0% fetal bovine serum, or 2 mL of fresh medium comprising antithrombin III added in concentrations ranging from 1 to 25 μg/mL to media containing no fetal bovine serum (0%). The viable cell count was assayed after 3 days of culture.
as §1, with “III or any of-various synthetic protease inhibitors given in Table 4” for “III”, “added” for “added in concentrations ranging from 1 to 25 μg/mL”

[2] = tested on: osteoblast cell line ROS; experiment: Survival of osteoblast cell line ROS in serum-free culture (viable cell count after 3 days); type: cell-based; conditions: ROS osteoblasts
Procedure: Two mL cell suspension of osteoblast cell line ROS dispersed in trypsin (5×10^5 cells) were inoculated on six multi-well plates and pre-cultured by using Dulbecco's modified Eagle medium (DMEM) containing 10% fetal bovine serum, 1.6 g/L sodium hydrogencarbonate, 0.584 g/L L-glutamine, and 0.08 g/L kanamycin sulfate at 37° C. in a 5% CO2 gas phase. After one day, the broth was recovered, the cell surfaces were washed with serum-free medium, and the culture was continued for another 3 days with the addition of medium containing 10%, 0% fetal bovine serum, or 2 mL of fresh medium comprising 13 μg/mL antithrombin III added to media containing no fetal bovine serum (0%). The viable cell count was assayed after 3 days of culture.

Molecule	Survival rate ([1]; additive 50 ng/ml) [%]	Survival rate ([1]; additive 1 μg/ml) [%]	Survival rate ([1]; additive 2.5 μg/ml) [%]	Survival rate ([1]; additive 5 μg/ml) [%]	Survival rate ([1]; additive 10 μg/ml) [%]	Survival rate ([1]; additive 17.5 μg/ml) [%]	Survival rate ([1]; additive 25 μg/ml) [%]	Effect in controlling cell death (in words) ([1]; additive 1 μg/mL)	Effect in controlling cell death (in words) ([1]; additive 2.5 μg/mL (so in the source))	Effect in controlling cell death (in words) ([1]; additive 25 μg/mL)	Effect in controlling cell death (in words) ([1]; concentration not given)	Survival rate ([2]; DMEM without fetal bovine serum, additive 13 μg/ml) [%]	Effect in controlling cell death (in words) ([2]; serum-free medium, additive 13 μg/mL)
B1	54.7	–	–	–	–	–	–	–	–	–	–	–	–
B2	–	68.6	68.0	74.1	88.5	93.3	94.0	cell death was suppressed	virtually the same survival rate as a serum concentration of 5%	highly effective in controlling cell death	virtually the same survival rate as that of the medium with a 5% serum concentration; also recorded: considerably effective in controlling cell death	85.5	considerably effective in controlling cell death
